Data set [1] has as its system collagen-induced arthritis.
Description: The effect of dexamethasone on arthritis development in the rat CIA model was tested at three dosages (0.01, 0.1 and 1 mg/kg). Dexamethasone was administered intravenously on day 10 (day of disease onset), 13, 16 and 19. Dexamethasone conjugate produced as described in Example 5 was tested at 0.01 mg/kg using the same treatment regimen as for dexamethasone. Treatment with vehicle (PBS/2.5% EtOH) served as negative control. Rats were sacrificed 21 days after immunization.
Collagen arthritis was induced in 9 weeks old female Lewis rats using a two-step immunization protocol. […]
Rats were evaluated 6 times per week (once during weekends) for arthritis severity using a macroscopic scoring system of 0-4 for each paw as detailed below: • 0=no signs of arthritis • 0.5=unloading of the paw and/or light redness of ankle joint • 1=redness and mild swelling of the ankle joint • 2=redness and swelling of paw • 3=severe redness and swelling of entire paw including digits • 4=maximally swollen paw, often involvement of multiple joints and extending towards knee joint.
The total clinical score of an individual rat is defined as the sum of the clinical scores of all four paws for each day. At the end of the study, the cumulative arthritis score was calculated for each rat. […]
The swelling of the hind paws was measured during weekdays with a laser scan micrometer (Mitutoyo, LSM-503S/6200). […]
For data set [2], the system named is LPS mediated TNFα stimulation. Kind of data set: Rat in vivo LPS model. Further details: species or system Lewis rats. Conditions: i.v., challenged with LPS; 2 hours post LPS.
Data set [3] has as its target T1, CD163 (Homo sapiens, UniProt Q86VB7). Kind of data set: ELISA antibody reactivity comparison. It is filed as binding. As for the experimental part: A nunc maxisorp plate was coated with the following (50 μl/well) over night at 4° C.: 4 μg/ml goat anti-human kappa chain antibody (AbD Serotec, Oxford, UK) and ˜4 μg/ml human CD163 (purified as described in 8). Buffer was carbonate buffer, pH 9.0. Each measurement was made in duplicate.
4) After blocking, the primary antibody was added (100 μl per well).
For CD163 ELISA • 100 μl/well of goat anti human IgG (H&L) HRP 1:6000 in PBS containing 1% BSA. • For Mac2-158 goat anti-mouse HRP 1:2000 in PBS containing 1% BSA is added to the wells 7) Step 1 was repeated 8) The ELISA was developed by adding 75 μl of TMB substrate to each well. Incubation was performed for 3 min. 9) The reaction was stopped by adding 30 μl 2 NH2SO4 to the wells. 10) The plate was read in an ELISA reader at 450 nm.
Background was measured on wells with no coating and wells with no primary antibody.

Data set [4] concerns the target T1, CD163. Kind of data set: Fab fragment activity measured by ELISA. It is filed as binding. The method, then:
A nunc maxisorp plate was coated with ˜1 μg/ml human CD163 (purified as described by Kristiansen, M. et al. ((2001). Identification of the haemoglobin scavenger receptor. Nature 11:409(6817): 198-201)) was added at 50 μl/well and incubated over night at 4° C. Buffer for coating was carbonate, pH 9.0. Each measurement was made in duplicates.
The primary antibody samples used in ELISA was undiluted supernatant or 30 times concentrated supernatant from transfected cells or antibody standard 100 ng/ml KN2/NRY antibody diluted in PBS containing 1% BSA. The supernatant was concentrated on VIVAspin centrifugal concentrator (10.000 MWCO) (Sigma-Aldrich, Brøondby, Denmark).
The ELISA steps were as follows: ELISA plates were washed 3 times in PBS and blocked with PBS containing 3% BSA for 1 h. After blocking the primary antibody samples were added to the wells (100 μl/well). 2 fold dilution series were made on all samples and standards (dilutions in PBS containing 1% BSA). The samples were incubated on the plates for 1 h. Subsequently, the plates were washed 3 times in PBS and secondary antibody goat anti human kappa chain HRP (AbD Serotec, Oxford, UK) 1:4000 in PBS containing 1% BSA (100 μl/well) was added to the wells. […] The plates were read in an ELISA reader at 450 nm.
Background was measured on both wells with no coating and wells with no primary antibody.
Background: In an ELISA, binding on a coated surface is turned into a signal by an enzyme label.

For data set [5], the target named is T1, CD163. Kind of data set: scFv ELISA. It is filed as binding. The following applies: two-fold dilution series. The method, then: A nunc Maxisorp ELISA plate (NUNC, Roskilde, Denmark) was coated with 50 μl/well of 2 μg/ml of CD163 (purified as described in (2)) over night at 4° C. The coated plate was washed 3 times in PBS and blocked for 1 hour with 3% BSA in PBS. Fractions from scFv purification were tested by adding 100 μl/well of a 1:10 dilution of each sample in 1% BSA, PBS. The refolded protein sample was added directly to the wells (100 μl/well) and two-fold dilution series was made with dilution in 1% BSA in PBS. After 1 hour incubation at 4° C. the plate was washed 3 times in PBS again. Secondary detection was made with a 1 hour incubation of a HRP conjugated anti-His antibody (Sigma-Aldrich, Brøondby, Denmark) (1:4000 diluted in 1% BSA, PBS). After washing 3 times in PBS the ELISA was developed with […] TMB substrate (Invitrogen, Taastrup, Denmark). The reaction was stopped with 40 μl/well of 1 M H2SO4 and the plate was read in an ELISA reader at 450 nm.

T1 sequence (Q86VB7 42-1156): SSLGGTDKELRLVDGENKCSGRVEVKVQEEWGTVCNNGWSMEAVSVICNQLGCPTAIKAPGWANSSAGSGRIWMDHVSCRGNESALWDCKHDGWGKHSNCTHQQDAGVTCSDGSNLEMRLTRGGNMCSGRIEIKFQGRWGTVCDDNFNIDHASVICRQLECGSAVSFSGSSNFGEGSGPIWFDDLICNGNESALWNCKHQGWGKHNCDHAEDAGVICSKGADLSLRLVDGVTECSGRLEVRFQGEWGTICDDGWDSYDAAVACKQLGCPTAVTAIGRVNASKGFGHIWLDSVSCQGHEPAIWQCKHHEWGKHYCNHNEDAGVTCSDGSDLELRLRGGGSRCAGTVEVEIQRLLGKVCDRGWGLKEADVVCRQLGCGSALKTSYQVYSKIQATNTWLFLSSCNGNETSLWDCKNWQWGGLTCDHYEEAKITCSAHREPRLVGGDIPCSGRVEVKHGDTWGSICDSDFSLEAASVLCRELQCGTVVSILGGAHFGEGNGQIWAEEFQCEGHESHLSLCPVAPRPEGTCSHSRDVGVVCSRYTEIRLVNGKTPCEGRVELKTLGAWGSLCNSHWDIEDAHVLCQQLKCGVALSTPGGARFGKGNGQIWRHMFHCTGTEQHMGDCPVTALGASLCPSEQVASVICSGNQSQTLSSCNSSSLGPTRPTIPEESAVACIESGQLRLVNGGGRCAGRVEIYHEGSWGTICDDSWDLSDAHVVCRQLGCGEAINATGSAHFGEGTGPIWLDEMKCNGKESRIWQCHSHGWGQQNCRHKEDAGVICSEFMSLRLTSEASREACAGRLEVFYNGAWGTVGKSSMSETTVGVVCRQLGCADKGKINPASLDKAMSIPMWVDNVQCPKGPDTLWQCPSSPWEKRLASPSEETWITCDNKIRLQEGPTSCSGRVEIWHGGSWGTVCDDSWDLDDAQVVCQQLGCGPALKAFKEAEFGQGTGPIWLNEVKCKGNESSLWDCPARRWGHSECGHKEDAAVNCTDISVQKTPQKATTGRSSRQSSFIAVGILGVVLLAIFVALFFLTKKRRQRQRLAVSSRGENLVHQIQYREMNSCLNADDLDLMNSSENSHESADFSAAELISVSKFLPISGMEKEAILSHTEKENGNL

Consider `C[C@@H]1C[C@H]2[C@@H]3CCC4=CC(=O)C=C[C@]4(C)[C@@]3(F)[C@@H](O)C[C@]2(C)[C@@]1(O)C(=O)CO` [dexamethasone], for which the “spleen and liver weights compared to the vehicle group” value in data set [1] (0.01, 0.1 and 1 mg/kg groups) is “No significant differences”. Further, the “thymus weight compared to the vehicle group” value in data set [1] (0.1 and 1 mg/kg groups, at sacrifice day 21) was “significantly decreased”. For `CC1(C)O[C@@H]2C[C@H]3[C@@H]4C[C@H](F)C5=CC(=O)C=C[C@]5(C)[C@@]4(F)[C@@H](O)C[C@]3(C)[C@]2(C(=O)CO)O1` [fluocinolone, Fluocinolone acetonide], in data set [2], the “TNFα level, lower compared to vehicle” value worked out at 5 times.

B1: cgamma(6)/K8: chimeric heavy chain cgamma(6) paired with humanized light chain K8 (antibody)
VH: DVQLQESGPGLVKPSQSLSLTCTVTGYSITSDYAWNWIRQFPGNKLEWMGYITYSGITNYNPSLKSQISITRDTSKNQFFLQLNSVTTEDTATYYCVSGTYYFDYWGQGTTLTVSS
light: DIVMTQSPSSLSASVGDRVTITCRASQSVSSDVAWFQQKPGKSPKPLIYYASSLQSGVPSRFSGSGSGTDFTLTISSLQAEDFAVYFCGQDYTSPRTFGGGTKLEIKRTVAAPSVFIFPPSDEQLKSGTASVVCLLNNFYPREAKVQWKVDNALQSGNSQESVTEQDSKDSTYSLSSTLTLSKADYEKHKVYACEVTHQGLSSPVTKSFNRGEC
As for B1, the “amount of antibody in sample to obtain the same reactivity as cgamma(6)/NRY” value in data set [3] is “approximately twice as much antibody”. Also, the “reactivity towards CD163 in ELISA” value in data set [3] (supernatant from transiently transfected CHO-S cells) was “almost identical”.

B2: Fab fragment: Fab of KN2/NRY: heavy chain KN2 with P220 mutated to stop, SEQ ID NO: 82, with light chain NRY (antibody)
heavy: QVQLQESGPGLVKPSETLSLTCTVSGYSITSDYAWNWIRQFPGNKLEWMGYITYSGSTYYNPSLKSRVTISVDTSKNQFSLKLSSVTAADTATYYCVSGTYYFDYWGQGTTLTVSSASTKGPSVFPLAPCSRSTSESTAALGCLVKDYFPEPVTVSWNSGALTSGVHTFPAVLQSSGLYSLSSVVTVPSSSLGTKTYTCNVDHKPSNTKVDKRVESKYG
light: DIVMTQSPSSLSASVGDRVTITCRASQSVSSDVAWFQQKPGKSPKPLIYYASNRYSGVPSRFSGSGSGTDFTLTISSLQAEDFAVYFCGQDYTSPRTFGGGTKLEIKRTVAAPSVFIFPPSDEQLKSGTASVVCLLNNFYPREAKVQWKVDNALQSGNSQESVTEQDSKDSTYSLSSTLTLSKADYEKHKVYACEVTHQGLSSPVTKSFNRGEC
With B2, the “ELISA signal and dilution series” value in data set [4] (30× concentrated supernatant, standard 100 ng/ml KN2/NRY) is given as “comparable to the standard dilution series”. Moreover, the ELISA signal result in data set [4] (undiluted, non-concentrated supernatant) was “very small signal”.

B3: scFv: scFv (VH-15 residue linker-VL), SEQ ID NO: 77, expressed in E. coli and refolded (protein)
scFv: MDQVQLQESGPGLVKPSETLSLTCTVSGYSITSDYAWNWIRQFPGNKLEWMGYITYSGSTYYNPSLKSRVTISVDTSKNQFSLKLSSVTAADTATYYCVSGTYYFDYWGQGTTLTVSSGGGGSGGGGSGGGGSDIVMTQSPSSLSASVGDRVTITCRASQSVSSDVAWFQQKPGKSPKPLIYYASNRYSGVPSRFSGSGSGTDFTLTISSLQAEDFAVYFCGQDYTSPRTFGGGTKLEIKREQKLISEEDL
modifications: scFv sequence
In the case of B3, the “dilution down to which signals were detected” value in data set [5] turned out to be 128 fold.
